Results reported in article PMC12519216.

Target: complex III (ubiquinone cytochrome C oxidoreductase) (mouse (endogenous in cerebellum)) (UniProt Q9CZ13)
Assay: native gel or EMSA; blue native PAGE (4 to 12% NativePAGE) of cerebellum mitochondria solubilised in 1% digitonin, WT and Mecr285/del10 mice; transferred to PVDF and immunoblotted; in-gel activity assays on parallel gels

- stoichiometry N: 2
Substance: complex III (ubiquinone cytochrome C oxidoreductase) (from UniProt Q9CZ13 35-480)
